Reference: paper PMC8187409, “The zinc-finger protein Red1 orchestrates MTREC submodules and binds the Mtl1 helicase arch domain” (Nature Communications, 2021)
Blank lines part the entries; values can stand above or below the molecule they belong to.

Assays:
[1] = target: ZZ-ctRed1_(spep) (residues 1040–1091) (Chaetomium thermophilum); assay: ITC; MicroCal PEAQ-ITC, 25 °C, 20 mM HEPES pH 7.5, 150 mM NaCl; 30 µM ZZ-ctRed1spep in the cell, 250 µM ctMtr4SA in the syringe; duplicate
[2] = target: T1, full-length spArs2 (in vitro binding) (S. pombe, UniProt O94326 1-609); assay: pull-down; GST pull-down: bait with 1.5 molar excess of prey, 20 mM HEPES pH 7.5, 150 mM NaCl (or higher, up to 600 mM or 1.5 M in the washes), 5% glycerol, 0.1% NP-40, 4 °C, glutathione agarose; SDS-PAGE, Coomassie; conditions: both partners purified
T1 construct: Ars2, S. pombe; source: E. coli (vectors for expression in E. coli)
T1 sequence (looked up): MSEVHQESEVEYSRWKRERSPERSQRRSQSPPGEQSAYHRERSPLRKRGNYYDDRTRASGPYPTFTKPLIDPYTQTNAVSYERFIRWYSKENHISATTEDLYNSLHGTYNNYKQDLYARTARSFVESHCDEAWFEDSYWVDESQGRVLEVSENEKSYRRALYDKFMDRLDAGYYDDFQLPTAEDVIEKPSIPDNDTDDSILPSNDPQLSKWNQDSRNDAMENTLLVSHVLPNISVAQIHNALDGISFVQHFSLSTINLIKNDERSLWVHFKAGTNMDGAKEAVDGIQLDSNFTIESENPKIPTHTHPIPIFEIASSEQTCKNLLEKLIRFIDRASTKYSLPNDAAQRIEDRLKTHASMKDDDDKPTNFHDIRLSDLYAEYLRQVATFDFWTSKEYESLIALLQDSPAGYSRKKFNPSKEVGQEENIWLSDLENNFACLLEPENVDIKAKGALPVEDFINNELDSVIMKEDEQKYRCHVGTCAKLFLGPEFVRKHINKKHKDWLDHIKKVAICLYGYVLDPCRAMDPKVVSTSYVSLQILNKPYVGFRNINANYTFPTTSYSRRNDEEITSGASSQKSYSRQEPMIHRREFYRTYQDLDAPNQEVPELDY

Kd [1]: 115 nM
stoichiometry N [1]: 1
Molecule: ctMtr4SA (residues 654–865), purified for ITC (domain or fragment)

binding result [2]: binds
B1: GST-tagged spRed1 peptide (SDKEDGEISEDDP) (peptide)
chain: SDKEDGEISEDDP
notes: source: E. coli (vectors for expression in E. coli)
